Measurements reported in publication PMC6614801 (2019).

B1: SuhB (inositol mono-phosphatase SuhB), wild type (natural protein)
chain: MHPMLNIAVRAARKAGNLIAKNYETPDAVEASQKGSNDFVTNVDKAAEAVIIDTIRKSYPQHTIITEESGELEGTDQDVQWVIDPLDGTTNFIKRLPHFAVSIAVRIKGRTEVAVVYDPMRNELFTATRGQGAQLNGYRLRGSTARDLDGTILATGFPFKAKQYATTYINIVGKLFNECADFRRTGSAALDLAYVAAGRVDGFFEIGLRPWDFAAGELLVREAGGIVSDFTGGHNYMLTGNIVAGNPRVVKAMLANMRDELSDALKR
B2: N-terminally His6-tagged NusA^AR2 (domain or fragment)
chain: DNKPADDLLNLEGVDRDLAFKLAARGVCTLEDLAEQGIDDLADIEGLTDEKAGALIMAARNICWFGDEA

Experiments:
Assay in all cases: SPR
[1] = target: B2
[2] = target: SuhB^K108A (E. coli, UniProt P0ADG4 1-267, K108A)
[3] = target: SuhB^KL251/254AA (E. coli, UniProt P0ADG4 1-267, KL251/254AA | KL251/254AA)

Binder | koff [1] [s⁻¹] | koff [2] [s⁻¹] | koff [3] [s⁻¹]
B1 | 0.0555 | – | –
B2 | – | 0.0498 | 0.341
